Reference: patent US20210115092A1 (YEDA RESEARCH AND DEVELOPMENT, published 2021)

B1: Nibrin (other)
chain: MWKLLPAAGPAGGEPYRLLTGVEYVVGRKNCAILIENDQSISRNHAVLTANFSVTNLSQTDEIPVLTLKDNSKYGTFVNEEKMQNGFSRTLKSGDGITFGVFGSKFRIEYEPLVACSSCLDVSGKTALNQAILQLGGFTVNNWTEECTHLVMVSVKVTIKTICALICGRPIVKPEYFTEFLKAVESKKQPPQIESFYPPLDEPSIGSKNVDLSGRQERKQIFKGKTFIFLNAKQHKKLSSAVVFGGGEARLITEENEEEHNFFLAPGTCVVDTGITNSQTLIPDCQKKWIQSIMDMLQRQGLRPIPEAEIGLAVIFMTTKNYCDPQGHPSTGLKTTTPGPSLSQGVSVDEKLMPSAPVNTTTYVADTESEQADTWDLSERPKEIKVSKMEQKFRMLSQDAPTVKESCKTSSNNNSMVSNTLAKMRIPNYQLSPTKLPSINKSKDRASQQQQTNSIRNYFQPSTKKRERDEENQEMSSCKSARIETSCSLLEQTQPATPSLWKNKEQHLSENEPVDTNSDNNLFTDTDLKSIVKNSASKSHAAEKLRSNKKREMDDVAIEDEVLEQLFKDTKPELEIDVKVQKQEEDVNVRKRPRMDIETNDTFSDEAVPESSKISQENEIGKKRELKEDSLWSAKEISNNDKLQDDSEMLPKKLLLTEFRSLVIKNSTSRNPSGINDDYGQLKNFKKFKKVTYPGAGKLPHIIGGSDLIAHHARKNTELEEWLRQEMEVQNQHAKEESLADDLFRYNPYLKRRR
notes: also called Nbs1; NBN
B2: DNA repair protein RAD50 (other)
chain: MSRIEKMSILGVRSFGIEDKDKQIITFFSPLTILVGPNGAGKTTIIECLKYICTGDFPPGTKGNTFVHDPKVAQETDVRAQIRLQFRDVNGELIAVQRSMVCTQKSKKTEFKTLEGVITRTKHGEKVSLSSKCAEIDREMISSLGVSKAVLNNVIFCHQEDSNWPLSEGKALKQKFDEIFSATRYIKALETLRQVRQTQGQKVKEYQMELKYLKQYKEKACEIRDQITSKEAQLTSSKEIVKSYENELDPLKNRLKEIEHNLSKIMKLDNEIKALDSRKKQMEKDNSELEEKMEKVFQGTDEQLNDLYHNHQRTVREKERKLVDCHRELEKLNKESRLLNQEKSELLVEQGRLQLQADRHQEHIRARDSLIQSLATQLELDGFERGPFSERQIKNFHKLVRERQEGEAKTANQLMNDFAEKETLKQKQIDEIRDKKTGLGRIIELKSEILSKKQNELKNVKYELQQLEGSSDRILELDQELIKAERELSKAEKNSNVETLKMEVISLQNEKADLDRTLRKLDQEMEQLNHHTTTRTQMEMLTKDKADKDEQIRKIKSRHSDELTSLLGYFPNKKQLEDWLHSKSKEINQTRDRLAKLNKELASSEQNKNHINNELKRKEEQLSSYEDKLFDVCGSQDFESDLDRLKEEIEKSSKQRAMLAGATAVYSQFITQLTDENQSCCPVCQRVFQTEAELQEVISDLQSKLRLAPDKLKSTESELKKKEKRRDEMLGLVPMRQSIIDLKEKEIPELRNKLQNVNRDIQRLKNDIEEQETLLGTIMPEEESAKVCLTDVTIMERFQMELKDVERKIAQQAAKLQGIDLDRTVQQVNQEKQEKQHKLDTVSSKIELNRKLIQDQQEQIQHLKSTTNELKSEKLQISTNLQRRQQLEEQTVELSTEVQSLYREIKDAKEQVSPLETTLEKFQQEKEELINKKNTSNKIAQDKLNDIKEKVKNIHGYMKDIENYIQDGKDDYKKQKETELNKVIAQLSECEKHKEKINEDMRLMRQDIDTQKIQERWLQDNLTLRKRNEELKEVEEERKQHLKEMGQMQVLQMKSEHQKLEENIDNIKRNHNLALGRQKGYEEEIIHFKKELREPQFRDAEEKYREMMIVMRTTELVNKDLDIYYKTLDQAIMKFHSMKMEEINKIIRDLWRSTYRGQDIEYIEIRSDADENVSASDKRRNYNYRVVMLKGDTALDMRGRCSAGQKVLASLIIRLALAETFCLNCGIIALDEPTTNLDRENIESLAHALVEIIKSRSQQRNFQLLVITHDEDFVELLGRSEYVEKFYRIKKNIDQCSEIVKCSVSSLGFNVH
B3: Double-strand break repair protein MRE11A (enzyme)
chain: STADALDDENTFKILVATDIHLGFMEKDAVRGNDTFVTLDEILRLAQENEVDFILLGGDLFHENKPSRKTLHTCLELLRKYCMGDRPVQFEILSDQSVNFGFSKFPWVNYQDGNLNISIPVFSIHGNHDDPTGADALCALDILSCAGFVNHFGRSMSVEKIDISPVLLQKGSTKIALYGLGSIPDERLYRMFVNKKVTMLRPKEDENSWFNLFVIHQNRSKHGSTNFIPEQFLDDFIDLVIWGHEHECKIAPTKNEQQLFYISQPGSSVVTSLSPGEAVKKHVGLLRIKGRKMNMHKIPLHTVRQFFMEDIVLANHPDIFNPDNPKVTQAIQSFCLEKIEEMLENAERERLGNSHQPEKPLVRLRVDYSGGFEPFSVLRFSQKFVDRVANPKDIIHFFRHREQKEKTGEEINFGKLITKPSEGTTLRVEDLVKQYFQTAEKNVQLSLLTERGMGEAVQEFVDKEEKDAIEELVKYQLEKTQRFLKERHIDALEDKIDEEVRRFRETRQKNTNEEDDEVREAMTRARALRSQSEESASAFSADDLMSIDLAEQMANDSDDSISAATNKGRGRGRGRRGGRGQNSASRGGSQRGRADTGLETSTRSRNSKTAVSASRNMSIIDAFKSTRQQPSRNVTTKNYSEVIEVDESDVEEDIFPTTSKTDQRWSSTSSSKIMSQSQVSKGVDFESSEDDDDDPFMNTSSLRRNRR

Molecular target: T1, Flag-Cas9 (wild-type, unmodified SpCas9) (Streptococcus pyogenes, UniProt Q99ZW2 2-1368)
T1 construct: expressed in HEK293; also called original Cas9; wt Cas9; not shown: Flag tag and N-terminal NLS of the vector; C-terminal NLS and what remains of the T2A peptide
T1 sequence (Q99ZW2 2-1368): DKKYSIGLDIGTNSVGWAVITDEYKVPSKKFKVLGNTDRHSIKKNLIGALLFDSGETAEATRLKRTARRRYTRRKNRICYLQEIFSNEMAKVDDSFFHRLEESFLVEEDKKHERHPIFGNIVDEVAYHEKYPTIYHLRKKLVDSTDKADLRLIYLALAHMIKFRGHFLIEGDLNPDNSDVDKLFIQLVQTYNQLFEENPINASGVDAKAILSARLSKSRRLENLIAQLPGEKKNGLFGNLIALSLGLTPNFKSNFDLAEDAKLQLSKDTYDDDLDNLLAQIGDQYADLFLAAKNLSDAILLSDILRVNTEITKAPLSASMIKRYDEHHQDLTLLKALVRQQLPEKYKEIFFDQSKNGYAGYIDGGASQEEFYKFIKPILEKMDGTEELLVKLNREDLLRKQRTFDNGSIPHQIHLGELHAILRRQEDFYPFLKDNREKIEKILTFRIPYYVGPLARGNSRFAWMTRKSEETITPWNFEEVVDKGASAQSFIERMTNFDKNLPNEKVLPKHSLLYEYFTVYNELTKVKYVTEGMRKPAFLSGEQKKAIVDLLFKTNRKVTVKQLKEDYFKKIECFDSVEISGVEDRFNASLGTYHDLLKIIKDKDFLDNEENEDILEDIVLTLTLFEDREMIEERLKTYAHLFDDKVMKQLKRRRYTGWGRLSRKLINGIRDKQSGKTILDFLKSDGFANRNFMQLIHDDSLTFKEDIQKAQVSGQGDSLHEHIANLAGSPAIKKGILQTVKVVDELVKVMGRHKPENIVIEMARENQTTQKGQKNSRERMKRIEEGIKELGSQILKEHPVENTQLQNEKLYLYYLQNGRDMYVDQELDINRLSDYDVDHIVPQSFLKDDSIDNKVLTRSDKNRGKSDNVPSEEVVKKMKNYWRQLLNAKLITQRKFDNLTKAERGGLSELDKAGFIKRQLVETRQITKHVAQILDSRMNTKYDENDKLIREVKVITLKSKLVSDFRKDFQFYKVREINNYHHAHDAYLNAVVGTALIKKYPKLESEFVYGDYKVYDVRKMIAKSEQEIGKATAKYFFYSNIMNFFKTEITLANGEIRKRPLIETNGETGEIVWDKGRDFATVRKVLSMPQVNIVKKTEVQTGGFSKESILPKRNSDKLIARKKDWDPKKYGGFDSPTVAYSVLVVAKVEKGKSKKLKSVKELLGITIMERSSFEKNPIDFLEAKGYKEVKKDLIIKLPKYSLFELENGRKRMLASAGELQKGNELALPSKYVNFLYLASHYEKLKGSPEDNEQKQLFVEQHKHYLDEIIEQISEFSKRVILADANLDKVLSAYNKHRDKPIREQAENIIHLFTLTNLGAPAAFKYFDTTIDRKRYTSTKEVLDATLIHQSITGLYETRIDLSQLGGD
Assay: co-immunoprecipitation, anti-Flag IP from transfected HEK293 extracts, immunoblot
Procedure: HEK293 cells were transfected with the Flag-Cas9 constructs indicated, or Flag-mCherry. Cells were harvested and extracts subjected to IP with anti-Flag. IP and total extract samples were analyzed by SDS-PAGE and immunoblot with the indicated antibodies. Of note: the Flag-mCherry protein, due to its small size, was run out of the gel under the conditions used and was therefore not detected.
Antibodies used were: anti-β-actin and anti-FLAG M2 (Sigma, St. Louis, Mo.); anti-Mre11, anti-Rad50, anti-Nbs1 (Santa Cruz Biotechnology, Santa Cruz, Calif.), anti-GFP (Living Colors) (Clontech). For immunoprecipitation (IP) of Flag-tagged proteins, anti-Flag M2 agarose (Sigma) was used. Horseradish peroxidase-conjugated secondary antibodies were from Jackson ImmunoResearch Laboratories, West Grove, Pa. Enhanced chemiluminescence was performed with the EZ-ECL kit (Biological Industries, Kibbutz Beit Haemek, Israel) and signals were detected by the ImageQuant LAS 4000 (GE Healthcare, Piscataway, N.J.). Intensities of bands were quantified by the ImageQuant TL software. For comparison of multiple experiments, values within one experiment were normalized to a standard set at 1.

Binder	binding result
B1	no binding
B2	no binding
B3	no binding
